{
  "source": "patent US20170342349A1",
  "about": "“STABILIZED ENZYME COMPOSITIONS” (NOVOZYMES A/S, priority 2014, published 2017)",
  "molecules": {"B1": {"name": "G182A: protease variant of SEQ ID NO 3 (protein, listed as Bacillus sp.)", "chain": "AVPSTQTPWGIKSIYNDQSITKTTGGSGIKVAVLDTGVYTSHLDLAGSAEQCKDFTQSNPLVDGSCTDRQGHGTHVAGTVLAHGGSNGQGVYGVAPQAKLWAYKVLGDNGSGYSDDIAAAIRHVADEASRTGSKVVINMSLGSSAKDSLIASAVDYAYGKGVLIVAAAGNSGSGSNTIGFPAGLVNAVAVAALENVQQNGTYRVADFSSRGNPATAGDYIIQERDIEVSAPGASVESTWYTGGYNTISGTSMATPHVAGLAAKIWSANTSLSHSQLRTELQNRAKVYDIKGGIGAGTGDDYASGFGYPRVK"}, "B2": {"name": "L184Y: protease variant of SEQ ID NO 3 (protein, listed as Bacillus sp.)", "chain": "AVPSTQTPWGIKSIYNDQSITKTTGGSGIKVAVLDTGVYTSHLDLAGSAEQCKDFTQSNPLVDGSCTDRQGHGTHVAGTVLAHGGSNGQGVYGVAPQAKLWAYKVLGDNGSGYSDDIAAAIRHVADEASRTGSKVVINMSLGSSAKDSLIASAVDYAYGKGVLIVAAAGNSGSGSNTIGFPGGYVNAVAVAALENVQQNGTYRVADFSSRGNPATAGDYIIQERDIEVSAPGASVESTWYTGGYNTISGTSMATPHVAGLAAKIWSANTSLSHSQLRTELQNRAKVYDIKGGIGAGTGDDYASGFGYPRVK"}, "B3": {"name": "K146T + S173P + S175P + F180Y: protease variant of SEQ ID NO 3 (protein, listed as Bacillus sp.)", "chain": "AVPSTQTPWGIKSIYNDQSITKTTGGSGIKVAVLDTGVYTSHLDLAGSAEQCKDFTQSNPLVDGSCTDRQGHGTHVAGTVLAHGGSNGQGVYGVAPQAKLWAYKVLGDNGSGYSDDIAAAIRHVADEASRTGSKVVINMSLGSSATDSLIASAVDYAYGKGVLIVAAAGNSGPGPNTIGYPGGLVNAVAVAALENVQQNGTYRVADFSSRGNPATAGDYIIQERDIEVSAPGASVESTWYTGGYNTISGTSMATPHVAGLAAKIWSANTSLSHSQLRTELQNRAKVYDIKGGIGAGTGDDYASGFGYPRVK"}, "B4": {"name": "K146S + S173P + S175P + F180Y: protease variant of SEQ ID NO 3 (protein, listed as Bacillus sp.)", "chain": "AVPSTQTPWGIKSIYNDQSITKTTGGSGIKVAVLDTGVYTSHLDLAGSAEQCKDFTQSNPLVDGSCTDRQGHGTHVAGTVLAHGGSNGQGVYGVAPQAKLWAYKVLGDNGSGYSDDIAAAIRHVADEASRTGSKVVINMSLGSSASDSLIASAVDYAYGKGVLIVAAAGNSGPGPNTIGYPGGLVNAVAVAALENVQQNGTYRVADFSSRGNPATAGDYIIQERDIEVSAPGASVESTWYTGGYNTISGTSMATPHVAGLAAKIWSANTSLSHSQLRTELQNRAKVYDIKGGIGAGTGDDYASGFGYPRVK"}, "B5": {"name": "K146N + S173P + S175P + F180Y: protease variant of SEQ ID NO 3 (protein, listed as Bacillus sp.)", "chain": "AVPSTQTPWGIKSIYNDQSITKTTGGSGIKVAVLDTGVYTSHLDLAGSAEQCKDFTQSNPLVDGSCTDRQGHGTHVAGTVLAHGGSNGQGVYGVAPQAKLWAYKVLGDNGSGYSDDIAAAIRHVADEASRTGSKVVINMSLGSSANDSLIASAVDYAYGKGVLIVAAAGNSGPGPNTIGYPGGLVNAVAVAALENVQQNGTYRVADFSSRGNPATAGDYIIQERDIEVSAPGASVESTWYTGGYNTISGTSMATPHVAGLAAKIWSANTSLSHSQLRTELQNRAKVYDIKGGIGAGTGDDYASGFGYPRVK"}, "B6": {"name": "K146W + S173P + S175P + F180Y: protease variant of SEQ ID NO 3 (protein, listed as Bacillus sp.)", "chain": "AVPSTQTPWGIKSIYNDQSITKTTGGSGIKVAVLDTGVYTSHLDLAGSAEQCKDFTQSNPLVDGSCTDRQGHGTHVAGTVLAHGGSNGQGVYGVAPQAKLWAYKVLGDNGSGYSDDIAAAIRHVADEASRTGSKVVINMSLGSSAWDSLIASAVDYAYGKGVLIVAAAGNSGPGPNTIGYPGGLVNAVAVAALENVQQNGTYRVADFSSRGNPATAGDYIIQERDIEVSAPGASVESTWYTGGYNTISGTSMATPHVAGLAAKIWSANTSLSHSQLRTELQNRAKVYDIKGGIGAGTGDDYASGFGYPRVK"}, "B7": {"name": "K146F + S173P + S175P + F180Y: protease variant of SEQ ID NO 3 (protein, listed as Bacillus sp.)", "chain": "AVPSTQTPWGIKSIYNDQSITKTTGGSGIKVAVLDTGVYTSHLDLAGSAEQCKDFTQSNPLVDGSCTDRQGHGTHVAGTVLAHGGSNGQGVYGVAPQAKLWAYKVLGDNGSGYSDDIAAAIRHVADEASRTGSKVVINMSLGSSAFDSLIASAVDYAYGKGVLIVAAAGNSGPGPNTIGYPGGLVNAVAVAALENVQQNGTYRVADFSSRGNPATAGDYIIQERDIEVSAPGASVESTWYTGGYNTISGTSMATPHVAGLAAKIWSANTSLSHSQLRTELQNRAKVYDIKGGIGAGTGDDYASGFGYPRVK"}, "B8": {"name": "K146A + S173P + S175P + F180Y: protease variant of SEQ ID NO 3 (protein, listed as Bacillus sp.)", "chain": "AVPSTQTPWGIKSIYNDQSITKTTGGSGIKVAVLDTGVYTSHLDLAGSAEQCKDFTQSNPLVDGSCTDRQGHGTHVAGTVLAHGGSNGQGVYGVAPQAKLWAYKVLGDNGSGYSDDIAAAIRHVADEASRTGSKVVINMSLGSSAADSLIASAVDYAYGKGVLIVAAAGNSGPGPNTIGYPGGLVNAVAVAALENVQQNGTYRVADFSSRGNPATAGDYIIQERDIEVSAPGASVESTWYTGGYNTISGTSMATPHVAGLAAKIWSANTSLSHSQLRTELQNRAKVYDIKGGIGAGTGDDYASGFGYPRVK"}, "B9": {"name": "S114A + S173P + S175P + F180Y: protease variant of SEQ ID NO 3 (protein, listed as Bacillus sp.)", "chain": "AVPSTQTPWGIKSIYNDQSITKTTGGSGIKVAVLDTGVYTSHLDLAGSAEQCKDFTQSNPLVDGSCTDRQGHGTHVAGTVLAHGGSNGQGVYGVAPQAKLWAYKVLGDNGSGYADDIAAAIRHVADEASRTGSKVVINMSLGSSAKDSLIASAVDYAYGKGVLIVAAAGNSGPGPNTIGYPGGLVNAVAVAALENVQQNGTYRVADFSSRGNPATAGDYIIQERDIEVSAPGASVESTWYTGGYNTISGTSMATPHVAGLAAKIWSANTSLSHSQLRTELQNRAKVYDIKGGIGAGTGDDYASGFGYPRVK"}, "B10": {"name": "S114Q + S173P + S175P + F180Y: protease variant of SEQ ID NO 3 (protein, listed as Bacillus sp.)", "chain": "AVPSTQTPWGIKSIYNDQSITKTTGGSGIKVAVLDTGVYTSHLDLAGSAEQCKDFTQSNPLVDGSCTDRQGHGTHVAGTVLAHGGSNGQGVYGVAPQAKLWAYKVLGDNGSGYQDDIAAAIRHVADEASRTGSKVVINMSLGSSAKDSLIASAVDYAYGKGVLIVAAAGNSGPGPNTIGYPGGLVNAVAVAALENVQQNGTYRVADFSSRGNPATAGDYIIQERDIEVSAPGASVESTWYTGGYNTISGTSMATPHVAGLAAKIWSANTSLSHSQLRTELQNRAKVYDIKGGIGAGTGDDYASGFGYPRVK"}, "B11": {"name": "S114F + S173P + S175P + F180Y: protease variant of SEQ ID NO 3 (protein, listed as Bacillus sp.)", "chain": "AVPSTQTPWGIKSIYNDQSITKTTGGSGIKVAVLDTGVYTSHLDLAGSAEQCKDFTQSNPLVDGSCTDRQGHGTHVAGTVLAHGGSNGQGVYGVAPQAKLWAYKVLGDNGSGYFDDIAAAIRHVADEASRTGSKVVINMSLGSSAKDSLIASAVDYAYGKGVLIVAAAGNSGPGPNTIGYPGGLVNAVAVAALENVQQNGTYRVADFSSRGNPATAGDYIIQERDIEVSAPGASVESTWYTGGYNTISGTSMATPHVAGLAAKIWSANTSLSHSQLRTELQNRAKVYDIKGGIGAGTGDDYASGFGYPRVK"}, "B12": {"name": "Q70A + S173P + S175P + F180Y: protease variant of SEQ ID NO 3 (protein, listed as Bacillus sp.)", "chain": "AVPSTQTPWGIKSIYNDQSITKTTGGSGIKVAVLDTGVYTSHLDLAGSAEQCKDFTQSNPLVDGSCTDRAGHGTHVAGTVLAHGGSNGQGVYGVAPQAKLWAYKVLGDNGSGYSDDIAAAIRHVADEASRTGSKVVINMSLGSSAKDSLIASAVDYAYGKGVLIVAAAGNSGPGPNTIGYPGGLVNAVAVAALENVQQNGTYRVADFSSRGNPATAGDYIIQERDIEVSAPGASVESTWYTGGYNTISGTSMATPHVAGLAAKIWSANTSLSHSQLRTELQNRAKVYDIKGGIGAGTGDDYASGFGYPRVK"}},
  "data": [
    {"assay": "Inhibitor binding assay of SEQ ID NO 3 variants, Inhibitor 1, in Model B detergent", "format": "biochemical", "conditions": "in Model B relative to SEQ ID NO 3; relative Ki, IF>1.0 = lower Ki", "source_text": "(§1) Where E is the protease, I is the inhibitor and EI is the protease-inhibitor complex. […] The concentration of enzyme-inhibitor in the detergent solution is then given by:\n(§2) where Etot is the total protease concentration ([Etot]=[E]+[EI]), Itot is the total inhibitor concentration ([Itot]=[I]+[EI]), and Ki is the equilibrium binding constant for the reaction. The measured slopes V are given by:\n(§3) where V0 is the slope without inhibitor added. To calculate apparent binding constant Ki least square fitting of measured slopes at various inhibitor concentrations to this equation is performed with Ki and V0 as variables.\n(§4) Purified protease variants are pre-diluted to approximately 0.2 mg/ml in dilution buffer. The experimental conditions are described in Table 5. 40 μl diluted protease is then mixed with 40 μl inhibitor solution Inhibitor 1: (Cbz-Gly-Ala-NHCH(CH2C6H4pOH)C(OH)(SO3Na)—H, wherein Cbz is benzyloxycarbonyl) or 40 μl Inhibitor 2: (4-FPBA) solution in the well of a 96 well microtiter plate (Nunc F 96-MTP). […] After 10 min mixing of protease and inhibitor at room temperature, 30 μl of the mixture is transferred to a microtiter plate (Nunc U96 PP 0.5 ml) with 270 μl Model B detergent (described in Table 1) in the wells resulting in inhibitor 1 concentrations of 0-30 μM and inhibitor 2 concentrations of 0-6000 μM. Protease, inhibitor and detergent is mixed for 1 hour using magnetic bars for 1 hour at room temperature to reach equilibrium. Then 20 μl is transferred to a microtiter plate (Nunc F 96-MTP). 100 μl substrate solution is added and after 5 sec mixing absorbance at 405 nm is measured every 20 sec for 5 min on a SpectraMax Plus reader. Slope from linear regression of initial increase in absorbance at 405 nm is used for calculation of apparent binding constants. Ki values were calculated according to the “Calculation of Ki” method described in “Materials and Methods”\n(§5) Having the Ki for each variant, it is possible to calculate the effect of a single mutation, if data are available for at least two variants that differ only by that mutation. In this case, the relative Ki for the mutation (Improvement Factor, or IF) is calculated:\n(§6) A lower Ki is desirable, as a satisfactory inhibition can be obtained at a lower inhibitor concentration, so beneficial mutations have an IF>1.0", "values": [
      {"molecule": "B1", "inhibitor 1 binding constant improvement factors (IF)": 1.86},
      {"molecule": "B2", "inhibitor 1 binding constant improvement factors (IF)": 4.47}
    ]},
    {"assay": "Inhibitor binding assay of SEQ ID NO 3 variants, Inhibitor 1, in Model B detergent", "format": "biochemical", "conditions": "in Model B relative to SEQ ID NO 3 comprising S173P + S175P + F180Y; relative Ki, IF>1.0 = lower Ki", "source_text": "as §1, §2, §3, §4, §5, §6", "values": [
      {"molecule": "B3", "inhibitor 1 binding constant improvement factors (IF)": 15.91},
      {"molecule": "B4", "inhibitor 1 binding constant improvement factors (IF)": 1.13},
      {"molecule": "B5", "inhibitor 1 binding constant improvement factors (IF)": 1.36},
      {"molecule": "B6", "inhibitor 1 binding constant improvement factors (IF)": 5.47},
      {"molecule": "B7", "inhibitor 1 binding constant improvement factors (IF)": 5.17},
      {"molecule": "B8", "inhibitor 1 binding constant improvement factors (IF)": 3.72},
      {"molecule": "B9", "inhibitor 1 binding constant improvement factors (IF)": 3.33},
      {"molecule": "B10", "inhibitor 1 binding constant improvement factors (IF)": 2.03},
      {"molecule": "B11", "inhibitor 1 binding constant improvement factors (IF)": 1.41},
      {"molecule": "B12", "inhibitor 1 binding constant improvement factors (IF)": 4.13}
    ]}
  ]
}
